Data taken from patent publication US20140289906A1, “Compositions Having Dicamba Decarboxylase Activity and Methods of Use” (priority 2013, published 2014).

Assay: 14C assay: 14CO2 capture from [14C]-carboxyl-labeled dicamba with IPTG-induced recombinant E. coli cells
Details: for Dicamba Decarboxylase Activity: IPTG-induced recombinant E. coli cells, 14CO2 from [14C]-carboxyl-labeled dicamba; for Enzymatic Detection level: dicamba decarboxylation activity

| Molecule | Dicamba Decarboxylase Activity | Enzymatic Detection level |
| --- | --- | --- |
| 70 (protein, listed as Alicyclobacillus acidocaldarius) MAIEPNRAADVHTHFLPTEVLEFLKREPRIQVDLERRAPDKEPFLTVEGRWSFELKRMFVDFEAFASAYRQAGIGLALVSPLPQLFVYHLPAEMGAQVAEVYNDALRDVLAPHRERFRPLATLPLADPTAAARELERRMDEGFVGAIVGPGVGEALIGDEAFWPLWEVADARRAVLFLHPLLHADPRAARLMLPNLVGVPWETTLAAAHLVLSGLLDRYPGARVLLAHGGGFLPYQIGRIEQGYDVWPQVRGRLQDRPTAYLRRMFYDNVLWSDAALRCLIDVVGADRVLAGSDFPFDLSAWPPRPGADVSVLAGGSGREGRLS | Low | Low |
| 68 (protein, listed as Hoeflea phototrophica) MAIIDAHTHTLCPAVNEKVAGTIKPDSVPYQRDMSPESKEQDHTQFPELKIMFNQVERRLADMARMGIDRQVIAPAPGQQHYWAEPKLLAEISALQNDHVAELVARAPDRFAGIGTLPMTDPDAAVAEITRATRELGLRVFQIDSRVMERELSDASLDPIYAALEAAGAGLMIHPLGFSNGERLTPFFMVNSVAQPLEELLAFNHLVFGGVLDRFPKLKVYIAHGGGFAPFYIGRFDHAWKVRPEVNRLTPSAPSTYLRRIYFDTCVYRTDHIETLVRTVGADRVMLGSDYPFDMGDTDPLGLLNACQGLSDDEKATISSKVAIDFFGLET | No | No |
| 60 (protein, listed as Catenulispora acidiphila) MARGFVRTAVVPGFWDAGWRGAGQPGGMRVDVHAHLFPAAYLDLLDDFRQDGGVGTREVRALGGGDGERELRLRLAAMDAVGVDVQLLSTCPQGPYTGDPTAAVEAARCANVALAQTVAQYPERLRALAALPLPHILASVDELNRAMEQDGMLGAAVGTSILGRPLSHPDFEPLFAALNRRKGVLFVHPIGESAGSPLMQASKLDRVIGYAAEVSTAILQLFQAGLTVKYPDIRIIAPHMGGYLPFLIQRLDRHRDWYLPKDAPSAGQLMRGIAYDTANPLPAALRLTAEVVGPERLLLGTDYPFEQGPSLRDHIEYILAAGLPEAQAKMIVDVNAADFLDMRSGAEQPPV | No | No |
| 37 (protein, listed as Burkholderia gladioli) MATFSNVKKIALEEHFAIAETIEDSAGFVPPDDWVELRGRLLDIQERRLAEMDRAGIELMVLSLNAPAVQAIRDPRQAVELARRANDYLAEQVARRPDRFRAFAALPMQAPEQAIREAERCVRELGFVGALVNGFSEAEDGAELYYDLPRYRPFWAALEALEVPFYLHPRNPLAGRAPIYDGHSWLMGPTWAFGQETAVHALRLMGSGLFDAHPRLQIILGHMGEGLPYSMWRVDNRNAWVSAKPNYPAEKPIAEYFRNNFWLTTSGNFRTQTLIDAMLEIGSDRILFSADWPFENMDHAADWFDHASISENDRIKIGRGNAERLLKLGR | Low | Low |
| 64 (protein, listed as Achromobacter piechaudii) MAIQKIDMHAHFFPPITRQEAAALDPVNAPWLRPDADGATGQIMAGEREFRPVDATLWDPALRIEQMDRHGVDVQILCATPIMFGYTYPARPAADWAARMNDLALEHCAYAPSRLKALAQVPLQDLELACQEASRARAAGHLGVQIGNHVGPRDLDDETLVQFLIHCANNDIPVLVHPWDMMTDGRMKKWMLPWLVSMPAETQLGILSLILSGAFERIPRSLKLCFAHGGGSFAYLLGRVDNAWRHRDIIRQDCPQLPSSYTDRFYTDSAVFDPRSLRLLIDVMGEDRVLLGSDYPYPLGEQEVGRLVAHAELVPEVQQKILFRNTMTFFGLQPGLQPGLQS | Low | Low |
| 40 (protein, listed as Rhodococcus jostii) MAQGKIALEEHFAIPETLNDSAGFVPGTYWDELQARLLDIQDVRLKLMDEHNIETMILSLNAPAVQAIPERERAIDIARRANDVLAEECAKRPDRFRGFAALPLQDPDAAAEELRRCVTELGFVGALVNGFSQSATVDGGSTPLYYDLPRYRPFWAEVERLDVPFYLHPRNPLNQDARIYEGHPWLLGPTWAFAQETAVHALRLMASGLFDEHPGLRIVLGHMGEGIPAMLWRIDHRNAWVDVPPAYPAKRRMVDYFTENFFVTTSGNFRTQTLIDLLLELGSERVMFSTDWPFENINHAAEWFDAASISEADRLKIGRTNAATLFKLDR | Low | Low |
| 69 (protein, listed as Microbacterium testaceum) MATSTEGQDVTDVHAHLLMPGLHAEVERRVPDEVQAAADLELRRNGLASLQASGRMIGERFPRLTDVRARLAAMDEQGVDRQWVSPSPNHFYPWANEGLATWASGEANRLIAEHVALAPDRLVGLGVVPLQHPHLVVDALDDAVLGRGLAGVEISSFAGDVELSDERLESFWARAAELRAVVFLHPFGCSLDERLDRFYLSNTVGQPTENAVALSHLIFSGVLDRHPGLRLIAAHGGGYLPTAIGRSDRAWRVRPEARGCAHAPSTYLSKLWFDTVVHDERALRWLVEAAGADRVLLGSDFPFDMGLDDPVAFVRGAGLQDAEVSGILGGNAAELLRTRVHA | No | No |
| 38 (protein, listed as Variovorax paradoxus) MAQGKIGLEEHFAIPQTLQDSAGFVPGVYWKELSSRLLDIHDGRLRQMDEHGMEMMILSLNAPAVQAVADPVKAYELAVRANDFLAEQVAKRPDRFQAFAALPMQDPEKATQELERCMSVLGFRGALVNGFSQVGTPDNVAYYDAPQYAPFWAAAERLDAPFYLHPRNPIASWAQIYEGHPWLLGPTWAFAQETAVHALRLMASGLFDRHPGLKIILGHLGEGLPYNMWRVDHRNAWVKAPKGYPAKRKLCEYFQENFYLTTSGNFRTQTLIDAMLEVGSDRILFSTDWPFENIDHASNWFNDTSISEADRKKIGRTNAMSLFKLA | Low | Low |
| 61 (protein, listed as Gordonia amarae) MATGAGSGVPSPADRVIVRSPGVIDVHAHAVLPMSLGCAGAAGPEIGYREDGSPFFRVGEYVLNGVRYEGSAFMDPEVRVAAMDAAGIGLQMISPNPITYFTRLDARSATDYARAHNDAIAEAAGRHPGRLVGAAQLPMQDVPAAIAELERSVRELGLVAAYIDTDIGDRTLDAPELDDFYSAAVELDVPVFIHPSPVGQEGPPDDTRLRRFDLDLLLGFSYDETLAVAALVFGGVLERHPALDVCLSHGGGTLAFVAGRFARAVAKPRAWVPEFLVENGIESYLRRLWLDTHVHSAGSLRLLIDTVGTDRLVFGTNFAGWDADGATEVDALGDLRETTTANAAHLLRLGRA | No | No |
| 45 (protein, Mycobacterium sp) MANDDLAEVIAAHPDRFAGFAALPMRDPQAAAVELQRAVGTHGFCGAMINGLIEGRFLDDPAFAPLLSTAADLGVPLYLHPSFPPPQVAEIYFGGLAPVLGDLLATAGWGWHAETALHVLRLVATGVFDRLPELWVIVGHMGEMIPFALARIDTVLSPVAQLRQPVAQYFQTNVWFTTSGYTTFPPLQCALSTVGIDRLIFSVDYPYTDNTSARALLDTAPISPVDREKLAHGTVEALLRV | No | No |
| 62 (protein, Bacillus thuringiensis serovar pulsiensis) MAVGGKNFRDVTDQVWCPKKRIEDMDREGVDIQVLSPIPVTFSYWAKPEEAESMARIQNDFIAETVLAYPDRFVGLGTVPMQDGETAIREMERCITELNLHGIEIGTNVNGKNLDDPSFIEFFRMAEKWQVPIFIHPWETLGRDRMPHHNFMYTVGMPSETALAAATLIWSGIMEKFPRLKVCFAHGGGSFPYILPRLDQGWKVWPHLRLTTHPPSYYAKKFYFDSLNYDPINLKYMIERFGHEKIFMGSDYPFLLREVDPGKVIDETASLSEEQKAAMLGGNAAEFLNIDIKKRGVAYAESTNT | No | No |
| 42 (protein, Agrobacterium radiobacter) MAQGKIALEEHFAIPDTLQDSAGFVPGDYWKELSARLLDIHEQRLMQMDAYGIEKMILSLNAPAVQAIPDKAKALEISRRANDFLAEQCARNPDRFLGFAALPLQDPDAATAELQRCVKTLGFVGALVNGFSQEGDGVTPLYYDLPQYRGFWAEVEKLAVPFYLHPRNPLPQDSRIYAGHPWLMGPTWAFAQETAVHALRLVGSGLFDDHPALRIILGHMGEGLPYMMWRIDNRNAWVKVAPNYPAKRRIADYFNENFYITTSGNFRTQSLVDAMLEIGADRILFSTDWPFENIDHASDWFDTATISEADRLKIGRTNAATLFNLES | Low | Low |
| 3 (protein, listed as Lactobacillus plantarum) MAKLITVEEHFESAAVTAAMRQAVGNAVLPAVSPALRQYMRDNLPSPAIMQDTQHERLAFMAQYGIDMQVLSYGNSSPQNLSPEQAVPLSQLANDELAKAVVAHPDRYAGLAVLPVGDPQAAVAELNRAVTTLGLRGVLLKGNYQNKFFDEPFFLPIFEAAAALDVPVYFHPSFIPQAVTSHYFESNQWSDVVTGILSSAGYGWHMDVGIQVIRMIASGIFDKLPGLKLISGHWGELVPLFLERLDDELTTYTDLQYPFSTYYRHNVYVTPSGILSAPQLQFMLAEMGADHLMYSIDYPYKQPETSGSFLDIADLTDEQRAQIAFGTATTLFKL | Low | Low |
| 39 (protein, listed as Agrobacterium fabrum) MAQGKVALEEHFAIPETLQDSAGFVPGDCWTELQHRLLDIQDTRLKLMDAHGIETMILSLNAPAVQAIPDKTKAIEIARRANDALAEECAKRPDRFLAFAALPLQDPDAATQELRRCVNDLGFVGALVNGFSQEGDGQTPLYYDLPQYRPFWGEVEKLDVPFYLHPRNPLPQDSRIYDGHPWLLGPTWAFAQETAVHALRLMASGLFDEHPRLDIILGHMGEGLPYMMWRIDHRNAWVKLPPRYPAKRRFVDYFNENFHITTSGNFRTQTLIDAILEIGADRILFSTDWPFENIDHASDWFHATSIAEADRVKIGRTNARRLFKLDGR | No | No |
| 59 (protein, alpha proteobacterium) MAPSVIDAHAHFLPGSLVTALRSRSDAPDIRTDSNGGESFGIYRTRMPYGRTYDALDVRLARMDELGVDRQILSLPGLFGIDSRPVSQALPLVRAFNDGVADLVRKHPDRFSGIAALPLADLDAAQEEYRRARGDLGLSGLILPGDTFVSVAAAERVRPLFELAATIGGLIFVHPGPLPDETGSAVDAPAPHTDSVVHRRVTVDIQNRMTEVMVTLALTDFLAPYPSVPVQVANLGGSLPFVIERMDHVYALRNPEAPPPSLSLRSLYVDAASLGPRAIALAAEVYGADRVLFGSDYPIFDDGRCLDAVRQTRLSPDARALIAGGNAARMLTQT | No | No |
